Values quoted from earlier work as cited in patent US8632989B1, “Mutant insulin degrading enzyme and methods of use” (University of Kentucky Research Foundation, priority 2011, dated 2014).

Molecular target: T1, Abz-GGFLRKHGQ-EDDnp (Rattus norvegicus, UniProt P35559)
T1 construct: begin at methionine 42, which is believed to be the in vivo start site, and extend through the native C-terminal residue leucine 1019; hexahistidine with linker holding a TEV protease site (N, cleaved yes); made in house; host or cells: SF9 insect cells (baculovirus, pFastBac HTb)
T1 sequence (P35559 42-1019): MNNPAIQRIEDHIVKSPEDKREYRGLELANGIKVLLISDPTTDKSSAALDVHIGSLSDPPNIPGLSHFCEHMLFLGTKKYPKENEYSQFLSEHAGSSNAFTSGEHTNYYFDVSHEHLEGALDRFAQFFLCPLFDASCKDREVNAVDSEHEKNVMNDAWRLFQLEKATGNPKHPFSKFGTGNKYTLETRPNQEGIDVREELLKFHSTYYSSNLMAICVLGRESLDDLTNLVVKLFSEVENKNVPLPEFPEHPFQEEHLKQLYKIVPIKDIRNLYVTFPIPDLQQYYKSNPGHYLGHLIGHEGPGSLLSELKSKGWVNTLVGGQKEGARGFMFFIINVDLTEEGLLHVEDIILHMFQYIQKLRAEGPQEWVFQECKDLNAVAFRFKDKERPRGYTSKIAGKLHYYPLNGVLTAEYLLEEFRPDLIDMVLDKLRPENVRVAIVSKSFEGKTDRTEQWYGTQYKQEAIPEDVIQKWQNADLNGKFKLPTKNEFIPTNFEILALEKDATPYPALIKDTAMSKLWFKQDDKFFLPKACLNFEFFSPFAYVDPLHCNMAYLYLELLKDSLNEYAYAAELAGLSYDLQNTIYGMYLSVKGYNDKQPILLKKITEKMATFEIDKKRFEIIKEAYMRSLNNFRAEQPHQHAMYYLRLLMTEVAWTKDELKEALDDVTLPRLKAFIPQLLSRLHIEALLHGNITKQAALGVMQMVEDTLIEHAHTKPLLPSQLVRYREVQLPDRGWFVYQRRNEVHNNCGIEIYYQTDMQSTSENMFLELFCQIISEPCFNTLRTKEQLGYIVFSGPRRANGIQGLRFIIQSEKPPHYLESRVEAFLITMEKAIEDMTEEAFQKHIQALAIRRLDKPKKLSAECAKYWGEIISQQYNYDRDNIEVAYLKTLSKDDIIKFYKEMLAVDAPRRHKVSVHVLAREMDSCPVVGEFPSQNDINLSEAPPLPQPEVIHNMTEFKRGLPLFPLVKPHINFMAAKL
Conditions: reference [15]; cited from earlier work

B1: IDE: Native rat insulin degrading enzyme (SEQ ID NO:1), expressed as hexahistidine fusion protein in Sf9 insect cells (protein, listed as Rattus norvegicus)
chain: MRNGLVWLLHPALPSTLHSILGARPPPVKRLCGFPKQIYSTMNNPAIQRIEDHIVKSPEDKREYRGLELANGIKVLLISDPTTDKSSAALDVHIGSLSDPPNIPGLSHFCEHMLFLGTKKYPKENEYSQFLSEHAGSSNAFTSGEHTNYYFDVSHEHLEGALDRFAQFFLCPLFDASCKDREVNAVDSEHEKNVMNDAWRLFQLEKATGNPKHPFSKFGTGNKYTLETRPNQEGIDVREELLKFHSTYYSSNLMAICVLGRESLDDLTNLVVKLFSEVENKNVPLPEFPEHPFQEEHLKQLYKIVPIKDIRNLYVTFPIPDLQQYYKSNPGHYLGHLIGHEGPGSLLSELKSKGWVNTLVGGQKEGARGFMFFIINVDLTEEGLLHVEDIILHMFQYIQKLRAEGPQEWVFQECKDLNAVAFRFKDKERPRGYTSKIAGKLHYYPLNGVLTAEYLLEEFRPDLIDMVLDKLRPENVRVAIVSKSFEGKTDRTEQWYGTQYKQEAIPEDVIQKWQNADLNGKFKLPTKNEFIPTNFEILALEKDATPYPALIKDTAMSKLWFKQDDKFFLPKACLNFEFFSPFAYVDPLHCNMAYLYLELLKDSLNEYAYAAELAGLSYDLQNTIYGMYLSVKGYNDKQPILLKKITEKMATFEIDKKRFEIIKEAYMRSLNNFRAEQPHQHAMYYLRLLMTEVAWTKDELKEALDDVTLPRLKAFIPQLLSRLHIEALLHGNITKQAALGVMQMVEDTLIEHAHTKPLLPSQLVRYREVQLPDRGWFVYQRRNEVHNNCGIEIYYQTDMQSTSENMFLELFCQIISEPCFNTLRTKEQLGYIVFSGPRRANGIQGLRFIIQSEKPPHYLESRVEAFLITMEKAIEDMTEEAFQKHIQALAIRRLDKPKKLSAECAKYWGEIISQQYNYDRDNIEVAYLKTLSKDDIIKFYKEMLAVDAPRRHKVSVHVLAREMDSCPVVGEFPSQNDINLSEAPPLPQPEVIHNMTEFKRGLPLFPLVKPHINFMAAKL
modifications: hexahistidine tag; wild-type Insulin Degrading Enzyme (IDE) from rat
- increase of cleavage rate of Abz-GGFLRKHGQ-EDDnp by ATP: more than 40 fold
